Assay results published in patent US20180155451A1 (published 2018).

T1: FcγRIIb (human, UniProt P31994 43-217)
T1 construct: extracellular domain; also called 2b
T1 sequence (looked up): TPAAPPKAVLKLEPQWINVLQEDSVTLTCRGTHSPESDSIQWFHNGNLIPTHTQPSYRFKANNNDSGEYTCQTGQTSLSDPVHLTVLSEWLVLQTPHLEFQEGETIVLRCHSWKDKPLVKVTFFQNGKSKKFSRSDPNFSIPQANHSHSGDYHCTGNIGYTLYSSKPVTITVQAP

T2: FcγRIIa H (human, UniProt P12318 34-217)
T2 construct: extracellular domain; also called FcγRIIa type H; 2aH
T2 sequence (looked up): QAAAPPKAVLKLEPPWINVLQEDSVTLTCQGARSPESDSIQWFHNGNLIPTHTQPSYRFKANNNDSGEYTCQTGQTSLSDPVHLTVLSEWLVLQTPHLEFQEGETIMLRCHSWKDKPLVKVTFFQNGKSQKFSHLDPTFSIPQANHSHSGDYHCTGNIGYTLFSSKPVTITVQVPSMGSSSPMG


Tests used:
FcγRIIb = biological target: T1, FcγRIIb; assay: SPR (Biacore), relative binding vs GpH7-A5/GpH7-B3/GpL16-k0
Procedure: (§1) The heterodimerized antibodies He Abs in which one of the H chains was introduced with an alteration were assayed for their binding activities to each activating FcγR and inhibitory FcγR according to the method described in Example 4. […] The activating FcγRs in FIGS. 26, 27, 28, and 29 are FcγRIa, FcγRIIa (R), FcγRIIa (H), and FcγRIIIa, respectively.
(§2) Analysis of interaction between objective antibody and the FcγR was carried out using Biacore T100 (GE Healthcare). HBS-EP+ (GE Healthcare) was used as the running buffer, and the measurement temperature was set to 25° C. Chips produced by immobilizing the antigen peptide by the amine coupling method to a Series S Sencor Chip CM5 (GE Healthcare), or alternatively, chips produced by allowing preliminarily biotinylated antigen peptides to interact with and immobilize onto a Series S Sensor Chip SA (certified) (GE Healthcare) were used. Antibodies of interest were captured onto an antigen peptide-immobilized chip, and allowed to interact to each FcγR diluted with running buffer. To regenerate and repeatedly use the chip, the antibodies captured on the chip were washed off by reacting 10 mM glycine-HCl, pH 1.5.

FcγRIIa H = biological target: T2, FcγRIIa H; assay: as above
Procedure: as §1, §2

Binder	He/Con_2b (FcγRIIb)	He/Con_2aH (FcγRIIa H)
GpH7-A5/GpH7-B3 variant K326_15Y/GpL16-k0 (antibody, human IgG1, kappa, heterodimerized IgG1, mutation in one H chain only; also called He Ab) heavy 1: not shown heavy 2: not shown light: DIVMTQSPLSLPVTPGEPASISCQASESLVHSNRNTYLHWYLQKPGQSPQLLIYKVSNRFSGVPDRFSGSGSGTDFTLKISRVEAEDVGVYYCSQNTHVPPTFGQGTKVEIERTVAAPSVFIFPPSDEQLKSGTASVVCLLNNFYPREAKVQWKVDNALQSGNSQESVTEQDSKDSTYSLSSTLTLSKADYEKHKVYACEVTHQGLSSPVTKSFNRGEC	159 % of control He Ab (=100)	98.3 % of control He Ab (=100)
GpH7-A5/GpH7-B3 variant K334_18N/GpL16-k0 (antibody, human IgG1, kappa, heterodimerized IgG1, mutation in one H chain only; also called He Ab) heavy 1: not shown heavy 2: not shown light: DIVMTQSPLSLPVTPGEPASISCQASESLVHSNRNTYLHWYLQKPGQSPQLLIYKVSNRFSGVPDRFSGSGSGTDFTLKISRVEAEDVGVYYCSQNTHVPPTFGQGTKVEIERTVAAPSVFIFPPSDEQLKSGTASVVCLLNNFYPREAKVQWKVDNALQSGNSQESVTEQDSKDSTYSLSSTLTLSKADYEKHKVYACEVTHQGLSSPVTKSFNRGEC	115 % of control He Ab (=100)	99.7 % of control He Ab (=100)
GpH7-A5/GpH7-B3 variant A330_01G/GpL16-k0 (antibody, human IgG1, kappa, heterodimerized IgG1, mutation in one H chain only; also called He Ab) heavy 1: not shown heavy 2: not shown light: DIVMTQSPLSLPVTPGEPASISCQASESLVHSNRNTYLHWYLQKPGQSPQLLIYKVSNRFSGVPDRFSGSGSGTDFTLKISRVEAEDVGVYYCSQNTHVPPTFGQGTKVEIERTVAAPSVFIFPPSDEQLKSGTASVVCLLNNFYPREAKVQWKVDNALQSGNSQESVTEQDSKDSTYSLSSTLTLSKADYEKHKVYACEVTHQGLSSPVTKSFNRGEC	104 % of control He Ab (=100)	99 % of control He Ab (=100)
GpH7-A5/GpH7-B3 variant L328_03V/GpL16-k0 (antibody, human IgG1, kappa, heterodimerized IgG1, mutation in one H chain only; also called He Ab) heavy 1: not shown heavy 2: not shown light: DIVMTQSPLSLPVTPGEPASISCQASESLVHSNRNTYLHWYLQKPGQSPQLLIYKVSNRFSGVPDRFSGSGSGTDFTLKISRVEAEDVGVYYCSQNTHVPPTFGQGTKVEIERTVAAPSVFIFPPSDEQLKSGTASVVCLLNNFYPREAKVQWKVDNALQSGNSQESVTEQDSKDSTYSLSSTLTLSKADYEKHKVYACEVTHQGLSSPVTKSFNRGEC	126 % of control He Ab (=100)	97.8 % of control He Ab (=100)
GpH7-A5/GpH7-B3 variant K326_16H/GpL16-k0 (antibody, human IgG1, kappa, heterodimerized IgG1, mutation in one H chain only; also called He Ab) heavy 1: not shown heavy 2: not shown light: DIVMTQSPLSLPVTPGEPASISCQASESLVHSNRNTYLHWYLQKPGQSPQLLIYKVSNRFSGVPDRFSGSGSGTDFTLKISRVEAEDVGVYYCSQNTHVPPTFGQGTKVEIERTVAAPSVFIFPPSDEQLKSGTASVVCLLNNFYPREAKVQWKVDNALQSGNSQESVTEQDSKDSTYSLSSTLTLSKADYEKHKVYACEVTHQGLSSPVTKSFNRGEC	119 % of control He Ab (=100)	97.9 % of control He Ab (=100)
GpH7-A5/GpH7-B3 variant L328_07I/GpL16-k0 (antibody, human IgG1, kappa, heterodimerized IgG1, mutation in one H chain only; also called He Ab) heavy 1: not shown heavy 2: not shown light: DIVMTQSPLSLPVTPGEPASISCQASESLVHSNRNTYLHWYLQKPGQSPQLLIYKVSNRFSGVPDRFSGSGSGTDFTLKISRVEAEDVGVYYCSQNTHVPPTFGQGTKVEIERTVAAPSVFIFPPSDEQLKSGTASVVCLLNNFYPREAKVQWKVDNALQSGNSQESVTEQDSKDSTYSLSSTLTLSKADYEKHKVYACEVTHQGLSSPVTKSFNRGEC	160 % of control He Ab (=100)	93.9 % of control He Ab (=100)
GpH7-A5/GpH7-B3 variant L328_19Q/GpL16-k0 (antibody, human IgG1, kappa, heterodimerized IgG1, mutation in one H chain only; also called He Ab) heavy 1: not shown heavy 2: not shown light: DIVMTQSPLSLPVTPGEPASISCQASESLVHSNRNTYLHWYLQKPGQSPQLLIYKVSNRFSGVPDRFSGSGSGTDFTLKISRVEAEDVGVYYCSQNTHVPPTFGQGTKVEIERTVAAPSVFIFPPSDEQLKSGTASVVCLLNNFYPREAKVQWKVDNALQSGNSQESVTEQDSKDSTYSLSSTLTLSKADYEKHKVYACEVTHQGLSSPVTKSFNRGEC	105 % of control He Ab (=100)	86.8 % of control He Ab (=100)
GpH7-A5/GpH7-B3 variant K334_02A/GpL16-k0 (antibody, human IgG1, kappa, heterodimerized IgG1, mutation in one H chain only; also called He Ab) heavy 1: not shown heavy 2: not shown light: DIVMTQSPLSLPVTPGEPASISCQASESLVHSNRNTYLHWYLQKPGQSPQLLIYKVSNRFSGVPDRFSGSGSGTDFTLKISRVEAEDVGVYYCSQNTHVPPTFGQGTKVEIERTVAAPSVFIFPPSDEQLKSGTASVVCLLNNFYPREAKVQWKVDNALQSGNSQESVTEQDSKDSTYSLSSTLTLSKADYEKHKVYACEVTHQGLSSPVTKSFNRGEC	108 % of control He Ab (=100)	97 % of control He Ab (=100)
GpH7-A5/GpH7-B3 variant L328_09D/GpL16-k0 (antibody, human IgG1, kappa, heterodimerized IgG1, mutation in one H chain only; also called He Ab) heavy 1: not shown heavy 2: not shown light: DIVMTQSPLSLPVTPGEPASISCQASESLVHSNRNTYLHWYLQKPGQSPQLLIYKVSNRFSGVPDRFSGSGSGTDFTLKISRVEAEDVGVYYCSQNTHVPPTFGQGTKVEIERTVAAPSVFIFPPSDEQLKSGTASVVCLLNNFYPREAKVQWKVDNALQSGNSQESVTEQDSKDSTYSLSSTLTLSKADYEKHKVYACEVTHQGLSSPVTKSFNRGEC	199 % of control He Ab (=100)	58.5 % of control He Ab (=100)
